Laboratory results: US20260022175A1 (Chugai, published 2026)

Columns and labels:
[1] = molecular target: T1, hFcγRIIaH on hFcγRIIaH-expressing Jurkat cells (human, UniProt P12318 34-317); assay: cell-based or functional assay
T1 sequence (looked up): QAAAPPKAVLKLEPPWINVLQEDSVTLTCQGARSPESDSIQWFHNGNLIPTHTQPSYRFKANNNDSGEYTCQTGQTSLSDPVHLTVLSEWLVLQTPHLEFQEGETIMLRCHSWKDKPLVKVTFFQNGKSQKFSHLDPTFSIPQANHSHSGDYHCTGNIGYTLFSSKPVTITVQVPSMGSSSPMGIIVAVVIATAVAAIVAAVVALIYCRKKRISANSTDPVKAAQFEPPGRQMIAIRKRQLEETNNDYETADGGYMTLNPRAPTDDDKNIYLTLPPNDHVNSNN

[2] = molecular target: hFcγRIIIaV on hFcγRIIIaV-expressing Jurkat cells (human, UniProt P08637 17-254); assay: cell-based or functional assay
Chain of hFcγRIIIaV on hFcγRIIIaV-expressing Jurkat cells (P08637 17-254, form in doubt): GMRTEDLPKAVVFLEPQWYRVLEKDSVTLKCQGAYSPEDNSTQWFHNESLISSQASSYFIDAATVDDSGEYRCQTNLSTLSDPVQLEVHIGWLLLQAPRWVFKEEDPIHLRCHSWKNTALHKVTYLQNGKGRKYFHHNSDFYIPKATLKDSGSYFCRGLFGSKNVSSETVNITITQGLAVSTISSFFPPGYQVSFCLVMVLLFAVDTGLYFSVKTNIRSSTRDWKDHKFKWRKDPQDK

[3] = molecular target: T2, human FcγRIIa R extracellular domain (human, UniProt P12318 34-217); assay: SPR Biacore 8K+; KD of G1d divided by KD of this antibody;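 also: antibodies captured on an anti-Fab-kappa streptavidin chip, soluble FcγR ectodomains flowed over, KD by steady-state fit for FcγRIIb and Langmuir kinetic model for the other receptors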
T2 construct: extracellular domain; also called hFcγR IIa R
T2 sequence (looked up): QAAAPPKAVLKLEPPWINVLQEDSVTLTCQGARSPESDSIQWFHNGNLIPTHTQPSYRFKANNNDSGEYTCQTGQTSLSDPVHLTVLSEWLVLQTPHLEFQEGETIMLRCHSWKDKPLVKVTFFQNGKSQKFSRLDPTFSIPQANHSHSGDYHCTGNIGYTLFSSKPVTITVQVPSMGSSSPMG

[4] = molecular target: T3, human FcγRIIIa V extracellular domain (human, UniProt P08637 17-208); assay: as above
T3 construct: extracellular domain; also called hFcγR IIIa V
T3 sequence (P08637 17-208 F176V limits assumed): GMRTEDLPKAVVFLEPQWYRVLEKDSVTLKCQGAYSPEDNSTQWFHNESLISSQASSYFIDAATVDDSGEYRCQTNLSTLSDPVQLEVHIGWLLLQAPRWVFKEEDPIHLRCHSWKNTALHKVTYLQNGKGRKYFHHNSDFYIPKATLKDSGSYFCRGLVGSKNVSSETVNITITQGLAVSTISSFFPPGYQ

[5] = molecular target: T4, human FcγRIIIa F extracellular domain (human, UniProt P08637 17-208); assay: as above
T4 construct: extracellular domain; also called hFcγR IIIa F
T4 sequence (P08637 17-208): as the sequence (P08637 17-208 F176V limits assumed) above, with V160F counted along it

[6] = molecular target: T5, human FcγRIIb extracellular domain (human, UniProt P31994 43-217); assay: as above
T5 construct: extracellular domain; also called hFcγR IIb
T5 sequence (looked up): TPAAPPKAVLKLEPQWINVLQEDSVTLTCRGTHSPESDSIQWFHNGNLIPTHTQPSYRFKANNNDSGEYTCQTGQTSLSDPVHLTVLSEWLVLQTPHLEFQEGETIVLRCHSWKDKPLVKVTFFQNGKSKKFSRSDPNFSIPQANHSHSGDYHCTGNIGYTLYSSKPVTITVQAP

[7] = molecular target: T6, human FcγRIIa H extracellular domain (human, UniProt P12318 34-217); assay: as above
T6 construct: extracellular domain; also called hFcγR IIa H
T6 sequence (looked up): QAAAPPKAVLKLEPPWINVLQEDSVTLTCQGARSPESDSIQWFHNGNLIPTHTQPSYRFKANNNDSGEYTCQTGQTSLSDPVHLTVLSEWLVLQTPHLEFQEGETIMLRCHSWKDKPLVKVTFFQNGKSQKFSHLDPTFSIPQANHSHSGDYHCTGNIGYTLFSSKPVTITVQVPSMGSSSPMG

[8] = molecular target: T7, human FcγRIa extracellular domain (human, UniProt P12314 16-292); assay: as above
T7 construct: extracellular domain; also called hFcγR Ia; hFcγRIa
T7 sequence (P12314 16-292): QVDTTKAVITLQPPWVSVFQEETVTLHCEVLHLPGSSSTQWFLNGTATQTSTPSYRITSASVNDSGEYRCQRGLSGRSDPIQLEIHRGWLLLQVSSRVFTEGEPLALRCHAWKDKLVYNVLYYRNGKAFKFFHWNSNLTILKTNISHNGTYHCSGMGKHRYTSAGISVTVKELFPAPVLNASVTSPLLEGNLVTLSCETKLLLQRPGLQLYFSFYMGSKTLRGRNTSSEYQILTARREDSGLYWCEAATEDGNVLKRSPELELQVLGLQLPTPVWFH

[9] = molecular target: T3, human FcγRIIIa V extracellular domain; assay: SPR Biacore 8K+, antibody captured, FcγR as analyte, 1:1 Langmuir model; hFcγR IIIa V allotype
[10] = molecular target: T2, human FcγRIIa R extracellular domain; assay: SPR Biacore 8K+; KD for FcγRIIb divided by KD for this FcγR;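 also: antibodies captured on an anti-human Fab kappa SA chip with soluble human FcγR ectodomains flowed over, FcγRIIb KD from steady-state fit, other FcγR KD from Langmuir model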
[11] = molecular target: T3, human FcγRIIIa V extracellular domain; assay: as above
[12] = molecular target: T4, human FcγRIIIa F extracellular domain; assay: as above
[13] = molecular target: T6, human FcγRIIa H extracellular domain; assay: as above
[14] = molecular target: T4, human FcγRIIIa F extracellular domain; assay: SPR Biacore 8K+, antibody captured, FcγR as analyte, 1:1 Langmuir model; hFcγR IIIa F allotype
[15] = molecular target: T5, human FcγRIIb extracellular domain; assay: SPR Biacore 8K+, antibody captured, FcγR as analyte, steady state affinity model
[16] = molecular target: T2, human FcγRIIa R extracellular domain; assay: SPR Biacore 8K+, antibody captured, FcγR as analyte, 1:1 Langmuir model;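 also: antibodies captured on a streptavidin chip through a biotinylated anti-human Fab kappa reagent, with FcγR extracellular domains injected in pH 7.4 phosphate buffer at 25 °C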
[17] = molecular target: T6, human FcγRIIa H extracellular domain; assay: as above
[18] = molecular target: T7, human FcγRIa extracellular domain; assay: as above
[19] = molecular target: T8, mCTLA4-His (mouse CTLA4 extracellular region linked with a His-tag) (mouse, UniProt P09793 36-161); assay: SPR 37C, ATP 100 µM
[20] = molecular target: T8, mCTLA4-His (mouse CTLA4 extracellular …); assay: SPR 37C, ATP 10 µM
[21] = molecular target: T8, mCTLA4-His (mouse CTLA4 extracellular …); assay: SPR 37C, ATP 100 µM; remark: listed apart in the source
human CTLA4 [22] = molecular target: T9, human CTLA4 (human); assay: SPR, 37C, antibody captured by anti-mouse IgG, ATP 1 uM
T9 construct: also called hCTLA4; hCTLA4-His-BAP
T9 sequence (chain, as listed by the source limits assumed): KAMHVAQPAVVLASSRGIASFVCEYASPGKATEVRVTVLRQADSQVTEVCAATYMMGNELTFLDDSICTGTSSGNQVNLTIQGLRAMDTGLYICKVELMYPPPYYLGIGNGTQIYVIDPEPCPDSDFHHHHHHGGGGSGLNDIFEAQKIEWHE

human CTLA4 [23] = molecular target: T9, human CTLA4; assay: SPR, 37C, antibody captured by anti-mouse IgG, ATP 100 uM
human CTLA4 [24] = molecular target: T9, human CTLA4; assay: SPR, 37C, antibody captured by anti-mouse IgG, ATP 10 uM

B1: H240-Kn037/L73-k0//H240-Hl036/L73-k0 (antibody, human IgG1, kappa)
heavy 1: QDQLVQSGAEVKKPGASVKVSCKASGFNIKDTYIQWVRQAPGQGLEWMGRIDPLRKQTKYREKFEGRVTITADTSTNTAYMELSSLRSEDTAVYYCVRSGREFDYWGQGTLVTVSSASTKGPSVFPLAPSSKSTSGGTAALGCLVKDYFPEPVTVSWNSGALTSGVHTFPAVLQSSGLYSLSSVVTVPSSSLGTQTYICNVNHKPSNTKVDKKVEPKSCDKTHTCPPCPAPELLAGPDVFLFPPKPKDTLMISRTPEVTCVVVDVSHEDPEVKFNWYVDGVEVHNAKTKPREEQYNSTYRVVSVLTVLHQDWLNGKEYKCKVSNKALPAPEEKTISKAKGQPREPQVCTLPPSRDELTKNQVSLWCLVKGFYPSDIAVEWESNGQPENNYKTTPPVLDSDGSFFLYSKLTVDKSRWQQGNVFSCSVMHEALHNHYTQKSLSLSP
heavy 2: QDQLVQSGAEVKKPGASVKVSCKASGFNIKDTYIQWVRQAPGQGLEWMGRIDPLRKQTKYREKFEGRVTITADTSTNTAYMELSSLRSEDTAVYYCVRSGREFDYWGQGTLVTVSSASTKGPSVFPLAPSSKSTSGGTAALGCLVKDYFPEPVTVSWNSGALTSGVHTFPAVLQSSGLYSLSSVVTVPSSSLGTQTYICNVNHKPSNTKVDKKVEPKSCDKTHTCPPCPAPELLAGPDVFLFPPKPKDTLMISRTPEVTCVVVDVSHEDPEVKFNWYVDGVEVHNAKTKPREEQYNSTYRVVSVLTVLHQDWLNGKEYKCKVSNKALPAPEEKTISKAKGQPREPQVYTLPPSRCELTKNQVSLSCAVKGFYPSDIAVEWESNGQPENNYKTTPPVLDSDGSFFLVSKLTVDKSRWQQGNVFSCSVMHEALHNHYTQKSLSLSP
light: DIQMTQSPSSLSASVGDRVTITCRASQDIHKYIAWYQQKPGQAPRLLIQYTSTLQPGVPSRFSGSGSGTDYTFTISSLQPEDIATYYCLQYEQLRTFGGGTKVEIKRTVAAPSVFIFPPSDEQLKSGTASVVCLLNNFYPREAKVQWKVDNALQSGNSQESVTEQDSKDSTYSLSSTLTLSKADYEKHKVYACEVTHQGLSSPVTKSFNRGEC
notes: also called EGL-GASDIE; GASDIE
Question: For B1, which “EC50 value (hFcγRIIaH ADCP Reporter Bioassay, Hepa1-6/hEREG target cells)” value [1] is on record?
Answer: 14.9 ng/mL

Question: And the “EC50 value (hFcγRIIIaV ADCC Reporter Bioassay, Hepa1-6/hEREG target cells)” value [2]?
Answer: 3.7 ng/mL

Question: What about the “Relative value to KD between G1d and hFcgRs” value (shortened to “Relative value”) [3] of the same binder?
Answer: 24.7

Question: What about the “Relative value” value [4] of the same binder?
Answer: 15.1

Question: And the “Relative value” value [5]?
Answer: 44.7

Question: And the “Relative value” value [6]?
Answer: 8

Question: And the “Relative value” value [7]?
Answer: 16.4

Question: And the “Relative value” value [8]?
Answer: 6.2

Question: What about the Kd [9] of the same binder?
Answer: 23.8 nM

Question: And the “A/I ratio (KD for FcγRIIb divided by KD for each FcγR)” value [10]?
Answer: 18.6

Question: What about the “A/I ratio (KD for FcγRIIb divided by KD for each FcγR)” value [11] of the same binder?
Answer: 52.6

Question: And the “A/I ratio (KD for FcγRIIb divided by KD for each FcγR)” value [12]?
Answer: 18.9

Question: And the “A/I ratio (KD for FcγRIIb divided by KD for each FcγR)” value [13]?
Answer: 18.2

Question: And the Kd [14]?
Answer: 66.1 nM

Question: What about the Kd [15] of the same binder?
Answer: 1250 nM

Question: What about the Kd [16] of the same binder?
Answer: 67 nM

Question: What about the Kd [17] of the same binder?
Answer: 68.6 nM

Question: What about the Kd [18] of the same binder?
Answer: 0.0145 nM

B2: 04H1208-G1m/04L1407-k0MT (antibody, human IgG1, kappa, V domains shown)
VH: EVQLVESGGGLVKPGGSLRLSCAASGFTFSSKTMNWVRQAPGKGLEWVSSISTRSGYIYYARSVKGRFTISRDNAKNSLYLQMNSLRAEDTAVYYCARYGKREDMLWVFDYWGQGTLVTVSS
VL: DIVMTQSPLSLPVTPGEPASISCDGPSTDVGDYNWVHWYQQKPGQAPRLLIYYTSSKPEGVPDRFSGSGSGTDFTLKISRVEAEDVGVYYCQTYAAPLGPTFGQGTKLEIKR
Question: How did the “fold weaker than its binding ability to human CTLA4” value [19] turn out when B2 was run?
Answer: ~2 times

Question: And the Kd [20]?
Answer: 84 nM

Question: What about the Kd [21] of the same binder?
Answer: 16 nM

B3: 04H1389-mFa55/04L1305-mk1 (antibody, mouse IgG2a, kappa)
heavy: EVQLVESGGGLVKPGGSLRLSCAASGFTFSSKTMNWVRQAPGKGLEWVSSISTQSHYIYYAESVKGRFTISRDNAKNSLYLQMNSLRAEDTAVYYCARYGKREDMLWVFDYWGQGTLVTVSSAKTTAPSVYPLAPVCGDTTGSSVTLGCLVKGYFPEPVTLTWNSGSLSSGVHTFPAVLQSDLYTLSSSVTVTSSTWPSQSITCNVAHPASSTKVDKKIEPRGPTIKPCPPCKCPAPNLLGGPDVFIFPPKIKDVLMISLSPIVTCVVVDVSEDDPDVQISWFVNNVEVHTAQTQTHREDYNSTLRVVSALPIQHQDWMSGKEFKCKVNNKDLPAPIERTISKPKGSVRAPQVYVLPPPEEEMTKKQVTLTCMVTDFMPEDIYVEWTNNGKTELNYKNTEPVLDSDGSYFMYSKLRVEKKNWVERNSYSCSVVHEGLHNHHTTKSFSRTPGK
light: DIVMTQSPLSLPVTPGEPASISCDGPSTGVGDYNYVHWYQQKPGQAPRLLIYFTSKKPSGVPDRFSGSGSGTDFTLKISRVEAEDVGVYYCQTYAAPLGPMFGQGTKLEIKRADAAPTVSIFPPSSEQLTSGGASVVCFLNNFYPKDINVKWKIDGSERQNGVLNSWTDQDSKDSTYSMSSTLTLTKDEYERHNSYTCEATHKTSTSPIVKSFNRNEC
notes: Mouse constant regions mFa55 and mk1; also called SW1389-mFa55
Question: Which results are given for B3?
Answer: Kd (human CTLA4 [22]): 51 nM; Kd (human CTLA4 [23]): 8.9 nM; Kd (human CTLA4 [24]): 18 nM
